Data from patent publication US7521540B2, “CYR61 compositions and methods” (Munin Corporation, priority 1996, dated 2009).

B1: human Cyr61: Human Cyr61, 381 amino acids, SEQ ID NO:4, expressed in the baculovirus system (protein, listed as Homo sapiens)
chain: MSSRIARALALVVTLLHLTRLALSTCPAACHCPLEAPKCAPGVGLVRDGCGCCKVCAKQLNEDCSKTQPCDHTKGLECNFGASSTALKGICRAQSEGRPCEYNSRIYQNGESFQPNCQHQCTCIDGAVGCIPLCPQELSLPNLGCPNPRLVKVTGQCCEEWVCDEDSIKDPMEDQDGLLGKELGFDASEVELTRNNELIAVGKGRSLKRLPVFGMEPRILYNPLQGQKCIVQTTSWSQCSKTCGTGISTRVTNDNPECRLVKETRICEVRPCGQPVYSSLKKGKKCSKTKKSPEPVRFTYAGCLSVKKYRPKYCGSCVDGRCCTPQLTRTVKMRFRCEDGETFSKNVMMIQSCKCNYNCPHANEAAFPFYRLFNDIHKFRD
B2: CTGF: Human ortholog of Fisp12, SEQ ID NO:8 (protein, listed as Homo sapiens)
chain: MTAASMGPVRVAFVVLLALCSRPAVGQNCSGPCRCPDEPAPRCPAGVSLVLDGCGCCRVCAKQLGELCTERDPCDPHKGLFCDFGSPANRKIGVCTAKDGAPCIFGGTVYRSGESFQSSCKYQCTCLDGAVGCMPLCSMDVRLPSPDCPFPRRVKLPGKCCEEWVCDEPKDQTVVGPALAAYRLEDTFGPDPTMIRANCLVQTTEWSACSKTCGMGISTRVTNDNASCRLEKQSRLCMVRPCEADLEENIKKGKKCIRTPKISKPIKFELSGCTSMKTYRAKFCGVCTDGRCCTPHRTTTLPVEFKCPDGEVMKKNMMFIKTCACHYNCPGDNDIFESLYYRKMYGDMA
B3: DM: Cyr61 double mutant with both heparin-binding motifs mutated (SEQ ID NO:30 region) (protein)
chain: TCPAACHCPLEAPKCAPGVGLVRDGCGCCKVCAKQLNEDCSKTQPCDHTKGLECNFGASSTALKGICRAQSEGRPCEYNSRIYQNGESFQPNCKHQCTCIDGAVGCIPLCPQELSLPNLGCPNPRLVKVSGQCCEEWVCDEDSIKDSLDDQDDLLGLDASEVELTRNNELIAIGKGSSLKRLPVFGTEPRVLFNPLHAHGQKCIVQTTSWSQCSKSCGTGISTRVTNDNPECRLVKETRICEVRPCGQPVYSSSLKAGAACSATAKSPEPVRFTYAGCSSVAAYAPKYCGCVDGRCCTPLQTRTVKMRFRCEDGEMFSKNVMMIQSCKCNYNCPHPNEASFRLYSLFNDIHKFRD

Experiments:
[1] = Heparin binding assay (salt elution from heparin-Sepharose/agarose)
HUVE cells [2] = test: HUVE cell adhesion to hCyr61-coated plates; format: cell-based, human; conditions: serum-free conditions
Experimental: Immunological plates (96-well ProBind assay plates, Falcon) were coated with 0.1-30 μg/ml hCyr61, fibronectin (Gibco BRL) or vitronectin (Gibco BRL) in phosphate-buffered saline (PBS) containing 0.1% protease-free BSA (Sigma) for 16 hrs at 4° C. The wells were blocked with 1% BSA in PBS for 1 hr at room temperature and washed with PBS. […] In some experiments, fbs was added to 5-10%. Also, in experiments involving vitronectin-coateci plates, endogenous vitronectin was removed from fbs by immunoaffinity chromatography using bovine polyclonal anti-vitronectin antibodies (Gibco). Norris et al., J. Cell Sci. 95:255-262 (1990). Cells were plated at 10^4 cells/well. After 2 hours, cells were fixed with 4% paraformaldehyde, stained with methylene blue and quantified as described. Oliver et al., J. Cell Sci. 92:513-518 (1989).
The ability of HUVE cells to adhere to hCyr61-coated plates in the presence of mock-immunodepleted fbs and serum immunodepleted with anti-bovine vitronectin antibodies were compared. […] The addition of vitronectin (30 μg/ml) to vitronectin-immunodepleted serum restored the ability of HUVE cells to adhere and spread on hCyr61-coated plates to the same level observed when whole serum was used in the cell attachment assay. […]
Additionally, HUVE cell attachment and spreading in the presence of an increasing quantity of vitronectin was examined. […]

[3] = tested on: 1064SK human skin fibroblasts; test: Human skin fibroblast migration; format: cell-based; conditions: 1064SK cells
NIH 3T3 cells = conditions: U.S. Pat. No. 5,408,040; cited from earlier work
cornea = test: Cornea assay for angiogenic factors; format: in vivo, rat; conditions: rat, in vivo
Source text: Another assay for modulators of angiogenesis is an in vivo assay for assessing the effect of a suspected modulator in the presence of an ECM signaling molecule-related biomaterial, such as Cyr61, on angiogenesis is the Cornea Assay. The Cornea Assay takes advantage of the absence of blood vessels in the cornea, which in the presence of an angiogenic factor, results in the detectable development of capillaries extending from the sclera into the cornea. Friedlander et al., Science 270:1500-1502 (1995). This ingrowth of new blood vessels from the sclera can be microscopically monitored. Further, the visually determined rate of migration can be used to assess changes in the rate of angiogenesis. These cornea assays may be performed using a wide variety of animal models. Preferably, the cornea assays are performed using rats. By way of example, an assay for suspected modulators of Cyr61 using this assay is disclosed. To perform this assay, Cyr61 is initially titrated using primary capillary endothelial cells to determine effective concentrations of Cyr61. Subsequently, Cyr61, in the presence or absence of a suspected modulator, is surgically implanted into the corneas of mammalian laboratory animals, e.g., rabbits or rats. In a preferred embodiment, Cyr61 (or Cyr61 and a suspected modulator) is embedded in a biocompatible matrix, using matrix materials and techniques that are standard in the art. Subsequently, eyes containing implants are visually observed for growth of the readily visible blood vessels within the eye. Control implantations may consist of physiologically balanced buffers embedded in the same type of matrix and implanted into eyes of the same type of laboratory animal receiving the Cyr61-containing implants.
Although rats of various sizes can be used in the cornea assay, a preferred size for the rats is 150-200 g/animal. Anesthesia is induced with Methoxyflurane and is maintained for 40-60 minutes with sodium pentobarbital (50 mg/kg, delivered intraperitoneally). The eyes are gently opened and secured in place by clamping the upper eyelid with a non-traumatic hemostat. Two drops of sterile proparacaine hydrochloride (0.5%) are then placed on each eye as to effect local anesthesia. Using a suitable surgical blade such as a No. 11 Bard Parker blade, an approximately 1.5 mm incision is made approximately 1 mm from the center of the cornea. […] Once the cornea pocket is made, the spatula is removed and the distance between the limbus and base of the pocket is measured to make sure the separation is at least about 1 mm. […]
Following surgery, animals are examined daily for seven days with the aid of a stereomicroscope to check for inflammation and responses. […] During this seven day period, animals are monitored for implant position and corneal exudate. […]

HUVE cells [4] = test: HUVE cell adhesion to wild-type and double-mutant Cyr61; format: cell-based, human
Experimental: Immobilized cells were stained with methylene blue and absorbances (A620) were recorded. relative binding capacities (binding of cells not exposed to a pre-incubation compound defined as 100%) are presented in Table III.

[5] = tested on: 1064SK primary human foreskin fibroblasts; test: Fibroblast adhesion assay (methylene blue, A620); format: cell-based; conditions: protein coated on wells
Experimental: The ability of Cyr61 to mediate cell adhesion in normal fibroblasts was investigated. Microtiter wells were coated with purified recombinant Cyr61 protein, and 1064SK primary human foreskin fibroblasts were allowed to adhere under serum-free conditions. […] 50 μl cell suspensions were plated on microtiter wells coated with varying concentrations (0.5-5.0 μg/ml) of Cyr61 protein. After incubation at 37° C. for 30 minutes, adherent cells were fixed and stained with methylene blue.
In another experiment, microtiter wells were coated with either BSA, Cyr61 (2 μg/ml), or vitronectin (VN; 0.5 μg/ml) and blocked with affinity-purified anti-Cyr61 antibodies for one hour at 37° C. before 1064SK cells were plated.
The effects of divalent cations in cell adhesion to Cyr61 was also investigated. […] Data are means from triplicate determinations. […] Inhibition by Ca^2+ is characteristic of adhesion through some members of the β1 family of integrins, including receptors that bind type I collagen, laminin, and vitronectin (integrins α2β1, α6β1, and αVβ1) in fibroblasts, as well as the lymphocyte-specific integrin αLβ2.
The effects of RGD peptides on Cyr61-mediated fibroblast binding was tested by plating cells in wells coated with Cyr61 (2 μg/ml). Type I collagen (2 μg/ml) or vitronectin (0.5 μg/ml), 2 mM GRGDSP or GRGESP peptide was then added.
Cells were also pre-incubated with 40 μg/ml monoclonal antibodies against the integrin α5 or the integrin αV subunits at room temperature for 30 minutes, then plated on wells coated with Cyr61 (2 μg/ml), vitronectin (0.5 μg/ml) or fibronectin (FN, 1 μg/ml). […] The data are means, representative of three experiments.
The 1064 SK cells were also analyzed using the monoclonal antibody JBIA, which binds the β1 integrin subunit. Cells were pre-incubated with the antibody (50 μg/ml) before plating on microtiter wells coated with Cyr61 (2 μg/ml), Type I collagen (2 μg/ml), or vitronectin (0.5 μg/ml). […] Data are means, representative of three experiments.
To identify the specific β1 integrin that mediates fibroblast adhesion to Cyr61, the inhibitory effects of function-blocking monoclonal antibodies were tested against various integrin α subunits. […] The data are means, representative of at least three experiments.

[6] = tested on: primary human foreskin fibroblasts; test: Cyr61-regulated gene expression (multi-gene blot, Northern); format: cell-based
Experimental: Purified, soluble, recombinant Cyr61 protein was added to cultures of primary human foreskin fibroblasts for 24 hours. From these cells, mRNA was isolated for preparation of probes to hybridize to a multi-gene blot (Clontech Atlas Human Array 1.2 cat no. 7850-1) containing about 650 genes. The levels of expression of these genes in Cyr61-treated cells were compared to that of control cells. […] These findings have been confirmed by Northern blot analysis showing increases or decreases of the mRNAs in question in Cyr61-treated cells. A time course of expression changes has been established. In particular, by 6 hours after its addition, Cyr61 has induced expression of VEGF-A mRNA and the induction is still evident at 12 and 24 hours post-addition. Also at 12 and 24 hours post-addition, Cyr61 has induced expression of VEGF-A polypeptide. With respect to VEGF-C, induction of mRNA is clearly evident 12 hours after addition of Cyr61 and the induction persists at least through 24 hours post-addition. Cyr61 is expected to induce the expression of VEGF-C polypeptide with similar kinetics.

Molecule | heparin binding [1] | HUVE cell attachment and spreading (HUVE cells [2]) | migration of human fibroblasts [3] | migration of NIH 3T3 and BASM cells (reported) (NIH 3T3 cells) | angiogenic effect in cornea assay (cornea) | HUVEC binding (HUVE cells [4]) | support of 1064SK fibroblast adhesion [5] | induction of VEGF, MMP1, MMP3 etc. [6] | NaCl concentration of elution from heparin-Sepharose/agarose ([1]; increasing salt concentrations)
B1 | quantitatively bound to heparin-agarose | mediated cell attachment but not spreading | induced migration of the human fibroblast cells |  |  |  |  |  | 
B2 |  |  |  | reported to induce the migration | confirm the effect of angiogenic factors |  |  |  | 
B3 | severely deficient in heparin binding |  |  |  |  | still mediated HUVEC binding | unable to support 1064SK fibroblast adhesion at any concentration tested | do not induce the expression of the above-referenced genes | up to 0.25 M NaCl
